Measured values reported in patent US20190330320A1.
Each block holds one substance with its values, some of them ahead of it.

Experiments:
[1] = target: hyperphosphorylated human tau P301L (4R0N) from rTg4510 mouse brain (64 and 70 kDa species) (human) (UniProt P10636); test: binding to P301L human mutant tau isolated from 10 month old Tg4510 mice
[2] = target: pathological hyperphosphorylated tau from human Alzheimer's disease brain (AD-P3 antigens) (human) (UniProt P10636); test: fluid phase inhibition of AD-P3 tau capture on MSD plates coated with mouse C10-2; two-site fit
[3] = target: pathological hyperphosphorylated tau from human Alzheimer's disease brain (AD-P3 antigens) (human) (UniProt P10636); test: fluid phase inhibition of AD-P3 tau capture on MSD plates coated with mouse C10-2; two-site fit, high affinity part
[4] = target: pathological hyperphosphorylated tau from human Alzheimer's disease brain (AD-P3 antigens) (human) (UniProt P10636); test: fluid phase inhibition of AD-P3 tau capture on MSD plates coated with mouse C10-2; two-site fit, low affinity part
[5] = target: pathological hyperphosphorylated tau from human Alzheimer's disease brain (AD-P3 antigens) (human) (UniProt P10636); test: fluid phase inhibition of Ptau antigen capture in C10-2 coated plate

Sequence of pathological hyperphosphorylated tau from human Alzheimer's disease brain (AD-P3 antigens) (human) (P10636 other isoform, or with tags, fused parts or gaps limits assumed): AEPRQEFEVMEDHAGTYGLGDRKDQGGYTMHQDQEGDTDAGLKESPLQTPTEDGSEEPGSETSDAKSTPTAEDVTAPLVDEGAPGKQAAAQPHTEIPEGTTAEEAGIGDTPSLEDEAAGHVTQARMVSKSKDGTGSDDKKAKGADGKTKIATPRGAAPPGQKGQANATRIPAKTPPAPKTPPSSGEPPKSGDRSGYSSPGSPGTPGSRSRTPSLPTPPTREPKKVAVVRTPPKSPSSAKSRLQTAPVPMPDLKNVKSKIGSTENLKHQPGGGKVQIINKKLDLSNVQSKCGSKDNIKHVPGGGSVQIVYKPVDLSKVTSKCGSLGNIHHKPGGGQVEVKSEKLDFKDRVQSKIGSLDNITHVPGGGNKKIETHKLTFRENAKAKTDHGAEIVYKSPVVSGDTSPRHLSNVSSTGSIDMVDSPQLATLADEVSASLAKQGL
Sequence of hyperphosphorylated human tau P301L (4R0N) from rTg4510 mouse brain (64 and 70 kDa species) (human) (P10636 other isoform, or with tags, fused parts or gaps P301L P301L): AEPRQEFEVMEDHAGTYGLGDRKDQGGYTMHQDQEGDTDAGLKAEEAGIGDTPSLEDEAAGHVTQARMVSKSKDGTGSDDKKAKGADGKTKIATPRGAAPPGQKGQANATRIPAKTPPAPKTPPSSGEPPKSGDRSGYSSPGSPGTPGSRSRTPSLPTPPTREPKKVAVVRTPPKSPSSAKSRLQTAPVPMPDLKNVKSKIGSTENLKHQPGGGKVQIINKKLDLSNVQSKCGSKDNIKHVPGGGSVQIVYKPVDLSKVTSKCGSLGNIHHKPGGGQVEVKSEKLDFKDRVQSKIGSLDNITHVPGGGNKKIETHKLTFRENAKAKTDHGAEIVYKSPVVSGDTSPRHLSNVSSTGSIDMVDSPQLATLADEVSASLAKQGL
Sequence of HJ8.5 (antibody) (VH): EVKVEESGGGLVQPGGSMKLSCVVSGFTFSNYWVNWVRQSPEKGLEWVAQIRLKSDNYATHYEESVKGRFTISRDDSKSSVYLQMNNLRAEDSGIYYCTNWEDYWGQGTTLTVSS
Sequence of HJ8.5 (antibody) (VL): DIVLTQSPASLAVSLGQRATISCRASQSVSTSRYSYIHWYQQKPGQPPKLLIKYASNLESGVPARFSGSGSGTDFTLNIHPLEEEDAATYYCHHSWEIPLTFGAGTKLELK
Sequence of IPN002 (antibody) (VH): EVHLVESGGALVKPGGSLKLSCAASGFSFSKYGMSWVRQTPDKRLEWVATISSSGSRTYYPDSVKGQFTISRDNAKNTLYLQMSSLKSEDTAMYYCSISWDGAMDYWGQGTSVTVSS
Sequence of IPN002 (antibody) (VL): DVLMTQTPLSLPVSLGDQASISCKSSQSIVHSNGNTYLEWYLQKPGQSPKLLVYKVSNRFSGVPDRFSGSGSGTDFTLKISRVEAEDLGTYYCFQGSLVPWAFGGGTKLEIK

TG/wt (binding to P301L tau from Tg4510 mice over wild type) [1]: 51
Substance: HJ8.5 (antibody)

share of the high affinity binding in the total binding [2]: < 25%
IC50 [3]: 14 nM
IC50 [4]: 630 nM
Substance: Antibody C10-2 (humanized C10-2)

IC50 [5]: 500 to 1000 nM
Substance: PHF-13 (antibody)

TG/wt (binding to P301L tau from Tg4510 mice over wild type) [1]: 37
Substance: IPN002 (antibody)
